# Assay results published in PMC10439913.
# What was measured:
# [1] = biological target: Domain-11 of human M6P/IGF2R (D11), C-terminally His-tagged (human) (UniProt P11717); assay: radioligand binding; competition of cold ligand with [125I]-monoiodotyrosyl-Tyr2-IGF2 for immobilized D11; Kd of the tracer 2 nM
# His-tagged IGFBP3 [2] = biological target: His-tagged IGFBP3 (UniProt P17936); assay: radioligand binding; saturation binding of 0-5 nM [125I]-monoiodotyrosyl-Tyr2-IGF2 to His-tagged IGFBP3 immobilized on a 96-well plate via neutravidin and Ni-NTA iBodies; 16 h at 5 °C, 100 mM HEPES pH 7.6, 100 mM NaCl, 1% BSA; nonspecific binding with 10 µM unlabeled IGF2
# His-tagged IGFBP3, sequence (P17936 28-291): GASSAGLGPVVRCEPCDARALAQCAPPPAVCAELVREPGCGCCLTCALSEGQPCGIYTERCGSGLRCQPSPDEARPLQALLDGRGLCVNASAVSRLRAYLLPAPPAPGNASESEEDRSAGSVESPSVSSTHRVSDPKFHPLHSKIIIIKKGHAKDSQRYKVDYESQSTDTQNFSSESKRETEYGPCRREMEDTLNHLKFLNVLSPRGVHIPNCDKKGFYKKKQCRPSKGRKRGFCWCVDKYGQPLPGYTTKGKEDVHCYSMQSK
# His-tagged IGFBP3 [3] = biological target: His-tagged IGFBP3 (UniProt P17936); assay: radioligand binding; saturation binding of 0-5 nM [125I]-monoiodotyrosyl-IGF2 to His-tagged IGFBP3 (25 ng/well) immobilized via neutravidin and Ni-NTA iBodies; 16 h at 5 °C, 100 mM HEPES pH 7.6, 100 mM NaCl, 1% BSA
# [4] = biological target: mannose-6-phosphate/IGF2 receptor (M6P/IGF2R), native in R- cells (mouse (endogenous in R- cells)) (UniProt Q07113); assay: radioligand binding; saturation binding of 0-5 nM [125I]-monoiodotyrosyl-Tyr2-IGF2 to 14,000 R- cells per well; 16 h at 5 °C, 100 mM HEPES pH 7.6, 100 mM NaCl, 1% BSA; nonspecific binding with 10 µM unlabeled IGF2; one-site fit
# mannose-6-phosphate/IGF2 receptor (M6P/IGF2R), native in R- cells (mouse (endogenous in R- cells)), sequence (Q07113 36-2483): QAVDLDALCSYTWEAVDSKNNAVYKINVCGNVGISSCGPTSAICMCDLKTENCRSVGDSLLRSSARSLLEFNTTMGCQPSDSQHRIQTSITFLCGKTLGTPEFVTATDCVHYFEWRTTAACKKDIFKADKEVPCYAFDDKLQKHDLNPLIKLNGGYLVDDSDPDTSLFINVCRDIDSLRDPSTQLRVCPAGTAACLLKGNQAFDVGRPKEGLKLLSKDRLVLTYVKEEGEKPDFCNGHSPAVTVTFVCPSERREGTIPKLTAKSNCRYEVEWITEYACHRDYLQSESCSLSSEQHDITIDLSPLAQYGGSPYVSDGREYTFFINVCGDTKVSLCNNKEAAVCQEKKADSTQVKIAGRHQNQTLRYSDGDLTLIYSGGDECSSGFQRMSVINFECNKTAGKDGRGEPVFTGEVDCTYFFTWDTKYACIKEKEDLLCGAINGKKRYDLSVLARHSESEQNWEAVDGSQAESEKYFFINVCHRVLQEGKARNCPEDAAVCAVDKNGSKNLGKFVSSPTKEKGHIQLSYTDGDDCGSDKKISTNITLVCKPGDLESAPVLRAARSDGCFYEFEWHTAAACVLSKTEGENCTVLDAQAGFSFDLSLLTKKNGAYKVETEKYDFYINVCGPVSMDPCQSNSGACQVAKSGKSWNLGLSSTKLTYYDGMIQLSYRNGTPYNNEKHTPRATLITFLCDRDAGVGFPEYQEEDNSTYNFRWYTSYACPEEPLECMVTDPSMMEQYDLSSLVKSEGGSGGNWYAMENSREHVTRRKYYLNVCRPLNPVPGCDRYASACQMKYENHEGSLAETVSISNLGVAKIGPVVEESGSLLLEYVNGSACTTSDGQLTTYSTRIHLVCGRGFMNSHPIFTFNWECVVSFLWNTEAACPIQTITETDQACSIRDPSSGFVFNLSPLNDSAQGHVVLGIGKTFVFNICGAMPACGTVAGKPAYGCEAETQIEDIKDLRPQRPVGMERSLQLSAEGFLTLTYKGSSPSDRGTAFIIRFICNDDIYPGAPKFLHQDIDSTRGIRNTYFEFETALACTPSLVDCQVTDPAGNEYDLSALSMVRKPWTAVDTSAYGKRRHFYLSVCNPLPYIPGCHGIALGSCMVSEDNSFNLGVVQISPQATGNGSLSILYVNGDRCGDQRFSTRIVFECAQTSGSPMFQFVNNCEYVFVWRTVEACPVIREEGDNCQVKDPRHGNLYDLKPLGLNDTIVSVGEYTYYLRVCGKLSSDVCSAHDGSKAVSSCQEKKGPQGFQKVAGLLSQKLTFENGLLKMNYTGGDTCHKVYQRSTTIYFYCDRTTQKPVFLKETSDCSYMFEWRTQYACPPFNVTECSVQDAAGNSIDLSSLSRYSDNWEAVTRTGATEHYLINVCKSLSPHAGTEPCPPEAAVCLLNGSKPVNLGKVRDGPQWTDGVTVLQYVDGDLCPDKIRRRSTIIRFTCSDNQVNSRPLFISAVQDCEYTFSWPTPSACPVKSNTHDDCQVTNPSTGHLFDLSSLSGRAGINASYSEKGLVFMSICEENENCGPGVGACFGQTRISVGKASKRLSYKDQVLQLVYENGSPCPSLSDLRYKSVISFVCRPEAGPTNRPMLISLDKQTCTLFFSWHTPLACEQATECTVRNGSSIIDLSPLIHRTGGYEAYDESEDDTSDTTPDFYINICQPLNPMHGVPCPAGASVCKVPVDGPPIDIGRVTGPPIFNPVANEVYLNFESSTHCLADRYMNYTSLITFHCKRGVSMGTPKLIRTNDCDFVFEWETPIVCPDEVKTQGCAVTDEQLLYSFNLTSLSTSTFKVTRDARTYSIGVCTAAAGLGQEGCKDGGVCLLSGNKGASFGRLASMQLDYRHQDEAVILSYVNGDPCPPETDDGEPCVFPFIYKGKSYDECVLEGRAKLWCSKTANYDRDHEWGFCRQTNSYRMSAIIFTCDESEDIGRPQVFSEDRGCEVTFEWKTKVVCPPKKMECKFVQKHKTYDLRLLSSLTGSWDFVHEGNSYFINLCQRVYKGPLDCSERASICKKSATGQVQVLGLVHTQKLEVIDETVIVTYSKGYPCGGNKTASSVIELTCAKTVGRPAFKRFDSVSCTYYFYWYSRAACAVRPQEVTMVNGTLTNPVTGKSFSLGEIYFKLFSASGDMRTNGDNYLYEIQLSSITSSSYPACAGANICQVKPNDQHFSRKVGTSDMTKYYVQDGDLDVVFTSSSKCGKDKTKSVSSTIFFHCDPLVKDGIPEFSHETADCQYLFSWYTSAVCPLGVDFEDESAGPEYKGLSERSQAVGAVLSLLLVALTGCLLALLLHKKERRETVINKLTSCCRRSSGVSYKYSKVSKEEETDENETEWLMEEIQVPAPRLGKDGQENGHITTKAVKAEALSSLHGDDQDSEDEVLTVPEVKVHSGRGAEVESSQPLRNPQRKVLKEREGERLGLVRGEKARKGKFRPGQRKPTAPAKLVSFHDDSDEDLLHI
# [5] = biological target: IGFBP3:ALS complex, preformed on immobilized His-tagged ALS (UniProt P35858); assay: radioligand binding; saturation binding of 0-5 nM [125I]-monoiodotyrosyl-IGF2 to IGFBP3 (no His-tag, 25 ng/well) preformed in complex with His-tagged ALS (10 ng/well) immobilized via neutravidin and Ni-NTA iBodies; 16 h at 5 °C, 100 mM HEPES pH 7.6, 100 mM NaCl, 1% BSA
# [6] = biological target: Domain-11 of human M6P/IGF2R (D11) (human) (UniProt P11717); assay: radioligand binding; competition of cold ligand with [125I]-monoiodotyrosyl-Tyr2-IGF2 for immobilized D11 (as in ref. 33); affinity relative to IGF2
# [7] = biological target: IGF1 receptor (IGF1R) (human) (UniProt P08069); assay: radioligand binding; competition of cold ligand with [125I]-iodotyrosyl-IGF1 for human IGF-1R on R+39 mouse fibroblasts; one-site fit; affinity relative to IGF1
# [8] = biological target: insulin receptor isoform A (IR-A) (human) (UniProt P06213); assay: radioligand binding; competition of cold ligand with [125I]-monoiodotyrosyl-TyrA14-insulin for human IR-A on whole IM-9 lymphocytes; one-site fit; affinity relative to human insulin
# [9] = biological target: insulin receptor isoform B (IR-B) (human) (UniProt P06213); assay: radioligand binding; competition of cold ligand with [125I]-monoiodotyrosyl-TyrA14-insulin for human IR-B on transfected mouse fibroblasts; one-site fit; affinity relative to human insulin
# [10] = biological target: mannose-6-phosphate/IGF2 receptor (M6P/IGF2R), native in R- cells (mouse (endogenous in R- cells)) (UniProt Q07113); assay: radioligand binding; competition of cold ligand (10^-12-10^-6 M) with [125I]-monoiodotyrosyl-Tyr2-IGF2 (43,000 cpm) for M6P/IGF2R on R- cells; 16 h at 5 °C, 100 mM HEPES pH 7.6, 100 mM NaCl, 1% BSA; affinity relative to IGF2
# [11] = biological target: IGFBP3:ALS complex, preformed on immobilized His-tagged ALS (UniProt P35858); assay: radioligand binding; competition of cold ligand (10^-12-10^-6 M) with [125I]-monoiodotyrosyl-Tyr2-IGF2 (43,000 cpm) for the IGFBP3:ALS complex immobilized through the His-tag of ALS; 16 h at 5 °C, HEPES pH 7.6; affinity relative to IGF2
# His-tagged IGFBP3 [12] = biological target: His-tagged IGFBP3 (UniProt P17936); assay: radioligand binding; competition of cold ligand (10^-12-10^-6 M) with [125I]-monoiodotyrosyl-Tyr2-IGF2 (43,000 cpm) for His-tagged IGFBP3 immobilized via neutravidin and Ni-NTA iBodies; 16 h at 5 °C, HEPES pH 7.6; affinity relative to IGF2
# [13] = biological target: human insulin receptor isoform A (IR-A) in human IM-9 lymphocytes (human) (UniProt P06213); assay: radioligand binding; competition of cold ligand with [125I]-monoiodotyrosyl-TyrA14-insulin on human IM-9 lymphocytes; Kd by one-site fit, Kd of the tracer 0.3 nM
# [14] = biological target: human IGF1 receptor in transfected mouse fibroblasts (R+39 cells) (human) (UniProt P08069); assay: radioligand binding; competition of cold ligand with [125I]-iodotyrosyl-IGF1 on R+39 cells (mouse fibroblasts with human IGF-1R); Kd by one-site fit, Kd of the tracer 0.2 nM
# [15] = biological target: human insulin receptor isoform B (IR-B) in transfected mouse fibroblasts (human) (UniProt P06213); assay: radioligand binding; competition of cold ligand with [125I]-monoiodotyrosyl-TyrA14-insulin on mouse fibroblasts transfected with human IR-B; Kd by one-site fit, Kd of the tracer 0.3 nM
# [16] = biological target: native M6P/IGF2R in R- cells (mouse embryonic fibroblasts) (mouse (endogenous in R- cells)) (UniProt Q07113); assay: radioligand binding; competition of cold ligand (10^-12-10^-6 M) with [125I]-monoiodotyrosyl-Tyr2-IGF2 on R- cells; 16 h at 5 °C, 100 mM HEPES pH 7.6, 100 mM NaCl, 1 mM EDTA, 1% BSA; Kd of the tracer 8.2 nM
# His-tagged IGFBP3 [17] = biological target: His-tagged IGFBP3 (UniProt P17936); assay: radioligand binding; competition of cold ligand (10^-12-10^-6 M) with [125I]-monoiodotyrosyl-Tyr2-IGF2 for His-tagged IGFBP3 immobilized on a 96-well plate via neutravidin and Ni-NTA iBodies; 16 h at 5 °C, 100 mM HEPES pH 7.6, 100 mM NaCl, 1% BSA
# [18] = biological target: IGFBP3:ALS complex, preformed on immobilized His-tagged ALS (UniProt P35858); assay: radioligand binding; competition of cold ligand (10^-12-10^-6 M) with [125I]-monoiodotyrosyl-Tyr2-IGF2 for the IGFBP3:ALS complex immobilized through the His-tag of ALS; 16 h at 5 °C, 100 mM HEPES pH 7.6, 100 mM NaCl, 1% BSA; Kd of the tracer 5.9 nM
# Domain-11 of human M6P/IGF2R (D11), C-terminally His-tagged (human), sequence (P11717 41-2491): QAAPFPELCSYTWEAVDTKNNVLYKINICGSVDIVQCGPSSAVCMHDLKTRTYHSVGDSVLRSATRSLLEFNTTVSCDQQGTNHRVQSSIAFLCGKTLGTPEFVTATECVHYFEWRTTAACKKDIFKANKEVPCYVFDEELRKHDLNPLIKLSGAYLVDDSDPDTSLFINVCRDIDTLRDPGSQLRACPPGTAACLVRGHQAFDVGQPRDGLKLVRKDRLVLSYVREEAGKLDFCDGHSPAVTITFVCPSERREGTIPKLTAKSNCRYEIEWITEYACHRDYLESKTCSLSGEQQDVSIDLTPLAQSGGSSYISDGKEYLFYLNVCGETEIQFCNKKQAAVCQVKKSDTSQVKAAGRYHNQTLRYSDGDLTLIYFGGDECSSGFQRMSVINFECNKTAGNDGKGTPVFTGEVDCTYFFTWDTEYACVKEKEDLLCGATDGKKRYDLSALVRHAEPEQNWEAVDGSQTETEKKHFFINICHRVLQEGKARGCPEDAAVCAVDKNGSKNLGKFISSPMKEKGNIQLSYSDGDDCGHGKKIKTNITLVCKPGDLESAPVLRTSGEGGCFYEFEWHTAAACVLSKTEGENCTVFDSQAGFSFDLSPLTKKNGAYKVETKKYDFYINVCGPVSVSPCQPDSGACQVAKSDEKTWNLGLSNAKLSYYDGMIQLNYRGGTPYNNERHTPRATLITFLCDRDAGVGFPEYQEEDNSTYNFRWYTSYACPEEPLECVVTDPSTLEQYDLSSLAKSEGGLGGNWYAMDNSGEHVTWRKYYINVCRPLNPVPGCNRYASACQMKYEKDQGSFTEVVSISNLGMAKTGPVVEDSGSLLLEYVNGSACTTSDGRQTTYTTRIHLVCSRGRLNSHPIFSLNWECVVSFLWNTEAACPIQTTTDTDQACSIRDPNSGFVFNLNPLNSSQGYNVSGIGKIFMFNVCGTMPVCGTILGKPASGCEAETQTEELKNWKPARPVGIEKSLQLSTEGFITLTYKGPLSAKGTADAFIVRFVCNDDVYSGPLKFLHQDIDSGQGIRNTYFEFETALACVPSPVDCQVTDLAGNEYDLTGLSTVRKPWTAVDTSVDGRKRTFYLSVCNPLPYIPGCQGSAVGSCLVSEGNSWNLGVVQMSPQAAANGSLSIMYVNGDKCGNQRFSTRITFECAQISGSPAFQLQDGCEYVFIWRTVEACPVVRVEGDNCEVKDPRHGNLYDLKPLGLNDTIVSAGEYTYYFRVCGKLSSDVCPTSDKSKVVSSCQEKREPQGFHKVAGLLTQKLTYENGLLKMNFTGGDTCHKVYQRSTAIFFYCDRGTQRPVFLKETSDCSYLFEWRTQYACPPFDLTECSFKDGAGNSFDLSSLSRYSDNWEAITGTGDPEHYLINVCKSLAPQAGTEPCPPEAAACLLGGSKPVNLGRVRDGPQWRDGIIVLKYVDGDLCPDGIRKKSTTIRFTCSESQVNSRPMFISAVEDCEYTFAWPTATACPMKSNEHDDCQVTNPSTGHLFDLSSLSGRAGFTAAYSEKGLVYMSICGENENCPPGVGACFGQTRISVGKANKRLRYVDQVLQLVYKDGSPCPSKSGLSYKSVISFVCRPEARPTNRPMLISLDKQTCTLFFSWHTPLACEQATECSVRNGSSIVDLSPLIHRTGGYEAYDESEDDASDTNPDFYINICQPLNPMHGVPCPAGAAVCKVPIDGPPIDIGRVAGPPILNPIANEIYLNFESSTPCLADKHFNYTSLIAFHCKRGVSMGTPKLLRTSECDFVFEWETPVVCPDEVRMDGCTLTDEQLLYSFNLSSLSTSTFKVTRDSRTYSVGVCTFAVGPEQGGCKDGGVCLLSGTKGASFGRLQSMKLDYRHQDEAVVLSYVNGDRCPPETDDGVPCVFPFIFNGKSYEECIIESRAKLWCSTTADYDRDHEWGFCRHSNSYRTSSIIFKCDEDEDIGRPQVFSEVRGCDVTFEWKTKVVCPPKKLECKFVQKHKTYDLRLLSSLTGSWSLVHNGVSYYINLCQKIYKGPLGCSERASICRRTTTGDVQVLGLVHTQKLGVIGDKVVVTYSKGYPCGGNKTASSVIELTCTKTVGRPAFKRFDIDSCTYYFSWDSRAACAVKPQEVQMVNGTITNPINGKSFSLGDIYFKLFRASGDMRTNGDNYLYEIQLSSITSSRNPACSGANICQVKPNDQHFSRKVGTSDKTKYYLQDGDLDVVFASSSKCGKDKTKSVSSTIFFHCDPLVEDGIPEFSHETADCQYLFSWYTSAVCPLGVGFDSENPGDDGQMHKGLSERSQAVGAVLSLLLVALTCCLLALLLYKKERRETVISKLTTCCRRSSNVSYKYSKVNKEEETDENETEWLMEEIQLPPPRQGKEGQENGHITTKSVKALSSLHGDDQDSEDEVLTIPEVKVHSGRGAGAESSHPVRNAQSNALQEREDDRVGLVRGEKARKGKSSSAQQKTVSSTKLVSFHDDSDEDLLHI
substance,measurement,setting,value
"Insulin-like Growth Factor-2 (IGF2), native mature 67-amino-acid protein (from UniProt P01344 25-91) (ligand)",Kd,[1],1.29 nM
[125I]-monoiodotyrosyl-Tyr2-IGF2 (ligand),Kd,His-tagged IGFBP3 [2],0.59 nM
[^125I]-monoiodotyrosyl-Tyr2-IGF2 (ligand),Kd,His-tagged IGFBP3 [3],0.56 nM
same,Kd,[4],8.2 nM
same,Kd,[5],5.9 nM
big-IGF2(87) (ligand),relative binding affinity (% of IGF2),[6],73%
same,relative binding affinity (% of IGF1),[7],14.8%
same,relative binding affinity (% of human insulin),[8],7.1%
same,relative binding affinity (% of human insulin),[9],2.7%
same,relative binding affinity (% of IGF2),[10],227%
same,relative binding affinity (% of IGF2),[11],58%
same,relative binding affinity (% of IGF2),His-tagged IGFBP3 [12],70%
"big-IGF2(87), non-glycosylated (ligand)",Kd,[1],1.77 nM
same,Kd,[13],3.82 nM
same,Kd,[14],1.6 nM
same,Kd,[15],9.47 nM
same,Kd,[16],0.56 nM
same,Kd,His-tagged IGFBP3 [17],0.29 nM
same,Kd,[18],1.63 nM
big-IGF2(104) (ligand),relative binding affinity (% of IGF2),[6],698%
same,relative binding affinity (% of IGF1),[7],9.7%
same,relative binding affinity (% of human insulin),[8],9.8%
same,relative binding affinity (% of human insulin),[9],2.9%
same,relative binding affinity (% of IGF2),[10],887%
same,relative binding affinity (% of IGF2),[11],17%
same,relative binding affinity (% of IGF2),His-tagged IGFBP3 [12],146%
"big-IGF2(104), non-glycosylated (ligand)",Kd,[1],0.19 nM
same,Kd,[13],2.75 nM
same,Kd,[14],2.48 nM
same,Kd,[15],8.83 nM
same,Kd,[16],0.14 nM
same,Kd,His-tagged IGFBP3 [17],0.14 nM
same,Kd,[18],5.58 nM
"pro-IGF2(156), non-glycosylated (from UniProt P01344 25-180) (ligand)",Kd,[1],2.31 nM
